Data taken from the supplement of paper PMC9876800.

Tested on: peptide library, one residue held at a place counted from the S/T acceptor
Assay: relative phosphorylation of the sub-library (ratio to the mean residue at this position); higher = residue favoured
Method in brief: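 Spots on streptavidin membranes were phosphorimaged and quantified by densitometry to measure phosphorylation of biotinylated degenerate peptide sub-libraries by purified recombinant kinases, human or orthologue constructs. The reactions ran in 384-well plates for 90 min under kinase-specific conditions, with peptides at 50 μM and 50 μM ATP spiked with γ-32P-ATP. Relative sub-library phosphorylation is the ratio to the mean residue at that position.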

Sequence of PRKCZ, construct: Full length, human (Q05513 whole entry, looked up): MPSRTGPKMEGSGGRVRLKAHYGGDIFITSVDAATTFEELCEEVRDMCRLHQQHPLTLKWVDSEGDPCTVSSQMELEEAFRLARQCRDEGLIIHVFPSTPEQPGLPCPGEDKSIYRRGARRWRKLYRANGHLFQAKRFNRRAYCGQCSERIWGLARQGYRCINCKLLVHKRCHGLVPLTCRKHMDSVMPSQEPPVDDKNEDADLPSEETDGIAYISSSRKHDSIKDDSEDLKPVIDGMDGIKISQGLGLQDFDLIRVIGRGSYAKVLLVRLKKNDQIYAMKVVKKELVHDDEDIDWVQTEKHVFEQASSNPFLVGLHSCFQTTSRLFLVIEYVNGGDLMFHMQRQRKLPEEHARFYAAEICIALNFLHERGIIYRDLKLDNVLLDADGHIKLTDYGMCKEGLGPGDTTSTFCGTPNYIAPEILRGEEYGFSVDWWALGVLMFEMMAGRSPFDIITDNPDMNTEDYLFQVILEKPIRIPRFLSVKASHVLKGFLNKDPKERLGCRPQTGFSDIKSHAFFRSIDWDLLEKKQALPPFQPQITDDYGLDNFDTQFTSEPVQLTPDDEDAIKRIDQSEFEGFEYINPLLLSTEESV

PRKCZ, construct: Full length, human (from UniProt Q05513)
relative phosphorylation
Details	at +1	at +2	at +3	at +4	at -1	at -2	at -3	at -4	at -5
A fixed	0.673	0.759	0.778	1	1.16	0.809	0.78	1.13	1.32
D fixed	0.193	0.206	0.324	0.596	0.387	0.399	0.425	0.666	0.79
E fixed	0.293	0.203	0.319	0.563	0.375	0.355	0.437	0.661	0.732
F fixed	1.37	0.662	0.927	0.827	0.468	1	0.842	0.827	1.23
G fixed	1.1	0.52	1.07	1.07	1.21	1.45	1.28	1.57	1.52
H fixed	0.752	1.35	1.33	1.35	1.06	1.07	1.08	1.03	1.08
I fixed	0.868	0.646	0.646	0.608	0.259	0.288	0.378	0.468	0.533
K fixed	2.46	2.13	2.15	2.05	3.12	1.18	1.91	1.29	1.15
L fixed	0.768	0.577	0.834	0.64	0.457	0.47	0.535	0.59	0.803
M fixed	1.42	0.912	0.759	0.706	0.755	0.731	0.659	0.783	0.694
N fixed	0.832	0.908	0.975	1.08	1.26	1.19	1.11	1.4	1.25
P fixed	0.344	0.512	0.706	1.17	0.986	1.16	1.1	1.45	1.12
Q fixed	1.23	0.916	0.978	1.14	1.19	0.983	1.08	1.04	0.788
R fixed	2.39	4.07	2.08	1.34	2.43	2.99	3.2	1.45	1.31
V fixed	0.844	0.682	0.671	0.703	0.406	0.342	0.415	0.483	0.607
W fixed	0.61	0.803	1.28	1.13	0.579	0.973	0.909	1.33	1.23
Y fixed	0.841	1.14	1.17	1.01	0.89	1.61	0.855	0.824	0.837
pThr fixed	0.461	0.391	0.519	0.651	0.314	0.632	0.696	0.847	0.985
pTyr fixed	0.363	0.396	0.623	0.538	0.451	0.621	0.831	0.761	0.857

PRKG1, construct: Full length, human (from UniProt Q13976)
relative phosphorylation
Details	at +1	at +2	at +3	at +4	at -1	at -2	at -3	at -4	at -5
A fixed	0.819	1.43	0.964	0.841	0.831	0.24	0.611	1.1	1.11
D fixed	0.195	0.45	0.572	0.5	0.21	0.0553	0.075	0.315	0.381
E fixed	0.236	0.242	0.458	0.419	0.193	0.0546	0.0892	0.395	0.517
F fixed	1.29	1.16	1.23	1.13	1.05	0.201	0.447	0.986	1.08
G fixed	0.479	0.901	1.06	1.07	0.416	0.248	0.684	0.878	1.06
H fixed	1.2	1.62	1.49	1.31	1.25	0.518	1.48	1.3	1.24
I fixed	1.73	1.25	1.02	1.19	0.958	0.168	0.262	0.75	0.82
K fixed	0.623	0.642	0.669	0.715	1.42	5.12	2.17	1.53	1.43
L fixed	1.45	0.936	1.07	1.22	1.33	0.166	0.239	0.996	0.779
M fixed	1.56	1.03	1.26	1.22	1.43	0.171	0.351	1.31	0.877
N fixed	0.589	0.94	0.909	1.15	0.787	0.264	0.329	0.891	0.905
P fixed	0.177	0.576	0.743	1.35	0.718	0.13	0.421	0.58	0.8
Q fixed	0.967	1.16	0.964	1.02	0.868	0.402	0.674	0.851	0.848
R fixed	0.982	0.6	0.861	0.754	1.95	8.27	7.6	2.14	1.81
V fixed	2.26	1.53	1.03	0.847	1.16	0.544	0.273	0.77	0.914
W fixed	1.12	1.35	1.33	1.24	0.797	0.22	0.482	1.06	1.25
Y fixed	1.33	1.2	1.38	1.02	1.64	0.23	0.82	1.15	1.19
pThr fixed	0.343	0.228	0.412	0.444	0.174	0.142	0.214	0.542	0.627
pTyr fixed	0.365	0.324	0.493	0.5	0.324	0.098	0.248	0.487	0.659
